Results reported in US20190071499A1 (published 2019).

T1: g1mIFN-α1 (mouse, UniProt P01572 24-189)
T1 construct: also called murine IFN-α1 (Gaussia luciferase fusion); not shown: Gaussia luciferase fusion partner
T1 sequence (looked up): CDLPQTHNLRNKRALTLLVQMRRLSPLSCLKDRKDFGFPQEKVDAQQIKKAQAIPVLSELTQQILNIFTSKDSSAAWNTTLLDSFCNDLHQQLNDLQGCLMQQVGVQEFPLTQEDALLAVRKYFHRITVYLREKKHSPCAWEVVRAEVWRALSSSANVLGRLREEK

T2: g1mIFN-α9 (mouse, UniProt P09235 24-190)
T2 construct: also called murine IFN-α9 (Gaussia luciferase fusion); not shown: Gaussia luciferase fusion partner
T2 sequence (looked up): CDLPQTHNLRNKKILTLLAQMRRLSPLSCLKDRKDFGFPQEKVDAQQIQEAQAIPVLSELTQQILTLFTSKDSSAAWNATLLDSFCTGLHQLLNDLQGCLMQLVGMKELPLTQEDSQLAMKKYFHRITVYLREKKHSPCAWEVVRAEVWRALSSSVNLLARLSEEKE

T3: peptide 23 of human IFN-αW (IFN-ω) (human)
T3 construct: spotted on a microarray through a linker
T3 peptide: TGLHQQLQHLETCLLQVV

T4: peptide 22 of human IFN-α2 (human)
T4 construct: spotted on a microarray through a linker
T4 peptide: YTELYQQLNDLEACVIQG

T5: human Fc fusion mouse IFN-α4 (mouse, UniProt P07351 25-186)
T5 construct: bought (SinoBiological); also called murine IFN-α4; not shown: human Fc
T5 sequence (looked up): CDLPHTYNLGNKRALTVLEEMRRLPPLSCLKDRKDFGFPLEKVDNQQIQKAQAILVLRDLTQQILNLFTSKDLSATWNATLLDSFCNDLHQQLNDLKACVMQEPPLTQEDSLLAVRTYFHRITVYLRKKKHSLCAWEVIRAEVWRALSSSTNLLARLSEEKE

T6: human Fc fusion mouse IFN-α2 (mouse, UniProt P01573 24-190)
T6 construct: bought (SinoBiological); also called murine IFN-α2; murine INFA2; not shown: human Fc
T6 sequence (looked up): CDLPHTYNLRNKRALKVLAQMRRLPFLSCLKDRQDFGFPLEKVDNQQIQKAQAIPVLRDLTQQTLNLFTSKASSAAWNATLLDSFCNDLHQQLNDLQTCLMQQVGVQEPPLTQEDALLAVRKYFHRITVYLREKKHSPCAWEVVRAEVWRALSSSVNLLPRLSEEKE

B1: 12H5 (antibody, human IgG1, kappa, V domains shown)
VH: QVQLIQSGPEVKRPGASVKVSCKASENTFDTHYINWVRQAPGQGLTWLGWLNPTTGKTGFPQKFKGRVILTSDTSLNTAYMEVSRLTSEDTAVYFCARVLKLSDEYNYGFDVWGQGTTVIVSS
VL: DIQVTQSPSSLSASIGDRVTITCRASQNILTFINWYQHKPGKAPKLLIYAASVLQNEVPSRFSGSGSGTDFTLTITSLQPDDFGTYYCQQTYLTPQCSFGQGTKVEIKR
B2: 25C3 (antibody, human IgG1, kappa, V domains shown)
VH: EMQLMESGGGLVQPGGSLRLSCVASGFTFKSFAMSWVRQAPGKGLEWVASVGSQGGSKYYAPSVKGRFSISRDNSNNTLYVQMNSLGVEDTAFYYCVKETDAVATMDALDMWGQGTLVIVST
VL: DIRVTQSPSSLSASVGDRVSISCQTSQSVNIYLNWYQQRPGKGPQLLISAASTLQSGVPSRFSGSGSGTDFILTIISLQPEDSASYYCQQGYITPYTFGQGTKVEIKR
notes: human-derived IgG1, kappa; also called MAB 25C3; hMAB 25C3
B3: 50E11 (antibody, human IgG1, kappa, V domains shown)
VH: QVQLVQSGAEMKKPGSSVKVSCKDFGGTFSVYGVNWVRQAPGQGLEWMGGLIPVIGPANYAQKFQGRITITADESTSTAYMELSSLRFDDTAIYYCVRDDNEYWGQGTLVTVSS
VL: EMVLTQSPATLSLSPGERATLSCRASQTVSTFLAWYQQKPGQVPRLLVYDISSRANGTPARFSGGGSGTDFTLTISSLELEDFAVYYCQWRSNWPPSLTFGGGTRVEIKR
B4: 26B9 (antibody, human IgG1, kappa, V domains shown)
VH: QILLQESGPGLVKPTETLSLTCSVSGDSISDSSHYWAWIRQPPGKGPEWIGSVYFSSMTHYNPSLKSRVSISVDKPKNQFSLKVTSVTVADTATYYCARQALARVGAMNWFDPWGQGSLVTVSS
VL: DIIMTQSPDSLPVSLGEGVTINCKSSQSVFFTSSNKSCLAWYQQKPGKSPKLLIYWASTRQSGVPDRFRGSGSGTDFSLTITSLQAEDVAVYFCQQCQTSPPTFGGGTRLEIKR
notes: human-derived IgG1, kappa; also called MAB 26B9; hMAB 26B9
B5: 31B4 (antibody, human IgG1, kappa, V domains shown)
VH: QIQLQESGPGLVRPTETLSLTCSVSGDSISQSSHYWAWIRQPPGKGPEWIGSVYFSSMTHYNPSLTSRVSISIDKAMNKFSLKVTSVTVADTATYYCARQALARVGAMNWFDPWGQGSLVTVSS
VL: DIIMTQSPESLPVSLGEGVTINCKSSQSVFFTSSNRSCLAWYQQKPGQSPKLLIYWASTRQSGVPDRFTGSGSGTDFSLTIAGLQVEDVAVYFCQQCHASPPTFGGGTRLELRR
notes: human-derived IgG1, kappa; clonally related to 26B9; also called MAB 31B4; hMAB 31B4
B6: 13B11 (antibody, human IgG1, kappa, V domains shown)
VH: DVQLLQSGGGLIQPGGSLRLSCAASGFTFKDYAMSWVRQAPGKGLEWVSVISRSGNIVDYVDSVKGRFTVSRDNSNNTLFLQMDGLRADDTAIYYCAKPKDMIVVVPAGFDSWGQGTLVSVSS
VL: DIQMTQFPSTLSASVGDSVTITCRASQSISAWLAWYQQKPGKAPKLLIYKGSRLENGVPSRFSGSGSGTEFTLTIGSLQPDDFATYYCQQYKTWTFGQGTKVEIKR
notes: human-derived IgG1, kappa; also called MAB 13B11; hMAB 13B11
B7: 8H1 (antibody, human IgG1, kappa, V domains shown)
VH: QVQLVQSGAEVKKPGASVKVSCKASGQTFTSDDINWVRQAPGQGLEWMGWRNPNTQDTGYAQKFHGRLTLTSNSSISTSYLELSGLRSEDTAVYYCARAGTSTLTGHYFALGVWGQGTTVIVSS
VL: DIQLTQSPSSLSASVGDRVTITCQATQDISKYLNWYQQKPGKVPKLLIYETSNLEVGVPSRFSGSGSGTHFTLTISSLQAEDFATYYCQQYENFPFTFGGGTKVEIKR

Tests used:
human IFN-α16 [1] = molecular target: T7, human IFN-α16 (human, UniProt P05015 24-189); assay: cell-based or functional assay
human IFN-α4 [2] = molecular target: T8, human IFN-α4 (human, UniProt P05014 24-189); assay: cell-based or functional assay
human IFN-α10 [3] = molecular target: T9, human IFN-α10 (human, UniProt P01566 24-189); assay: cell-based or functional assay
human IFN-α6 = human IFN-α6 (human, UniProt P05013 24-189, limits assumed); assay: cell-based or functional assay
human IFN-α1 [4] = molecular target: T10, human IFN-α1 (human, UniProt P0DY56 24-189); assay: cell-based or functional assay
human IFN-α14 [5] = molecular target: T11, human IFN-α14 (human, UniProt P01570 24-189); assay: cell-based or functional assay
human IFN-α5 = human IFN-α5 (human, UniProt P01569 24-189, limits assumed); assay: cell-based or functional assay
human IFN-α17 = human IFN-α17 (human, UniProt P01571 24-189); assay: cell-based or functional assay
human IFN-α21 [6] = molecular target: T12, human IFN-α21 (human, UniProt P01568 24-189); assay: cell-based or functional assay
human IFN-α7 = human IFN-α7 (human, UniProt P01567 24-189); assay: cell-based or functional assay
g1mIFN-α1 = molecular target: T1, g1mIFN-α1; assay: LIPS
g1mIFN-α9 = molecular target: T2, g1mIFN-α9; assay: LIPS
human IFN-α16 [7] = molecular target: T7, human IFN-α16; assay: ELISA or LIPS (Table 7 summary)
human IFN-α10 [8] = molecular target: T9, human IFN-α10; assay: ELISA or LIPS (Table 7 summary)
human IFN-α1 [9] = molecular target: T10, human IFN-α1; assay: ELISA or LIPS (Table 7 summary)
human IFN-α21 [10] = molecular target: T12, human IFN-α21; assay: ELISA or LIPS (Table 7 summary)
human IFN-ω = human IFN-ω (human, UniProt P05000 24-195, limits assumed); assay: cell-based or functional assay
[11] = molecular target: T3, peptide 23 of human IFN-αW (IFN-ω); assay: peptide microarray, 18mer peptides of human IFN-αW
[12] = molecular target: T4, peptide 22 of human IFN-α2; assay: peptide microarray, 18mer peptides of human IFN-α2
[13] = molecular target: T5, human Fc fusion mouse IFN-α4; assay: ELISA, human Fc fusion mouse IFN-α
Method: (§1) 96 well microplates (Costar, USA) were coated with human IFN-α1, IFN-α2 (ImmunoTools), IFN-α4 (SinoBiological), IFN-α5, IFN-α6, IFN-α8, IFN-α21 (all form PBL) and IFN-α14 (ATGen) or IFN-α8 (Novus Biologicals). Plates were washed with PBS-T and blocked 1 h at room temperature with PBS containing 2% BSA (Sigma, Buchs, Switzerland). Patient sera, B cell conditioned medium, or recombinant antibody preparations were incubated for 2 h at room temperature. Binding of human IgG to the antigen of interest was determined using a horseradish peroxidase conjugated goat anti human Fe-gamma-specific antibody (Jackson ImmunoResearch, Europe Ltd., Cambridgeshire, UK) followed by measurement of the HRP activity using a TMB substrate solution (TMB, Sigma, Buchs, Switzerland).

[14] = molecular target: T6, human Fc fusion mouse IFN-α2; assay: ELISA, human Fc fusion mouse IFN-α
Method: as §1

human IFN-α4 [15] = molecular target: T8, human IFN-α4; assay: ELISA or LIPS (Table 7 summary)
human IFN-α14 [16] = molecular target: T11, human IFN-α14; assay: ELISA or LIPS (Table 7 summary)
g1 IFN-α10 = molecular target: T13, g1 IFN-α10 (human, UniProt P01566 24-189); assay: LIPS, IFN-Gaussia luciferase fusion proteins
T13 construct: in-house fusion; also called IFN-α10-Gaussia luciferase fusion protein; not shown: Gaussia luciferase (naturally secreted), N-terminal fusion partner
T13 sequence (P01566 24-189): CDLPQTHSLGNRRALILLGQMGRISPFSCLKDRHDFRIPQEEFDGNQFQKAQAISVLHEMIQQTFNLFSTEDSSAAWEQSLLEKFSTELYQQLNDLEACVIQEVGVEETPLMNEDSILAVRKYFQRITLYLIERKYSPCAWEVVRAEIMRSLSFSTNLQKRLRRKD

Chain of human IFN-α17 (P01571 24-189 limits assumed): as the sequence (P01566 24-189) above, with G19A, R37G, I38L, A51T, D95N, V106M, I132T, R134K, R161I counted along it
T9 sequence (P01566 24-189 limits assumed): as the sequence (P01566 24-189) above
T8 sequence (P05014 24-189 limits assumed): as the sequence (P01566 24-189) above, with G19A, P26H, R37G, I38F, Q40E, N46H, I132T, R134K counted along it
T11 sequence (P01570 24-189 limits assumed): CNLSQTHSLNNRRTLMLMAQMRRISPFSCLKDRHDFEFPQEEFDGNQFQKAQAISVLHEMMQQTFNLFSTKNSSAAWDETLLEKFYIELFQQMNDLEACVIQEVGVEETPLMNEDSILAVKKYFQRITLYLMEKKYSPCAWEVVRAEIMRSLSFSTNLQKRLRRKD
Chain of human IFN-ω (P05000 24-195 limits assumed): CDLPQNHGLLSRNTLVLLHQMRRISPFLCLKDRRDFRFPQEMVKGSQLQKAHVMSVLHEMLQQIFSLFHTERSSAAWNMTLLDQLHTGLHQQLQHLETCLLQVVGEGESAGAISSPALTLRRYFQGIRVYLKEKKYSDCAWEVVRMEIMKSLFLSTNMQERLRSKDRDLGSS
Chain of human IFN-α6 (P05013 24-189 limits assumed): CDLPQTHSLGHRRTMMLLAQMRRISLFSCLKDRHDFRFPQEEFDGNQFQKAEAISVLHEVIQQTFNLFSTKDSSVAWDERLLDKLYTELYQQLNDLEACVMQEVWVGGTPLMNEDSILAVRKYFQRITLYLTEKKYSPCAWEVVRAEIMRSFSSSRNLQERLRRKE
T7 sequence (P05015 24-189 limits assumed): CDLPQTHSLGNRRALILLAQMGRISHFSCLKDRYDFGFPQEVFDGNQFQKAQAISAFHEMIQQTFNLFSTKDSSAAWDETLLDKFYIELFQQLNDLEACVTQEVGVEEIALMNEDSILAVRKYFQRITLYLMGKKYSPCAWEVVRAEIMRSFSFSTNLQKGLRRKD
Chain of human IFN-α7 (P01567 24-189 limits assumed): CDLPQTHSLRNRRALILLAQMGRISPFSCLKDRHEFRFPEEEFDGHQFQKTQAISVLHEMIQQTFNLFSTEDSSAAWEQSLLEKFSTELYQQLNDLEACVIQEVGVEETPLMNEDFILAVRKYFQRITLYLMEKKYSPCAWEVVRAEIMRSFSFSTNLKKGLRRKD
T10 sequence (P0DY56 entry or part of it limits assumed): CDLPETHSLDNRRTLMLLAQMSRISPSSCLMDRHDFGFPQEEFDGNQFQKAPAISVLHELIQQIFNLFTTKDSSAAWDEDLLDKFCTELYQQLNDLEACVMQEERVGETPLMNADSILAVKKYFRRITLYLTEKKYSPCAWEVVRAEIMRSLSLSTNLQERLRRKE
T12 sequence (P01568 24-189 limits assumed): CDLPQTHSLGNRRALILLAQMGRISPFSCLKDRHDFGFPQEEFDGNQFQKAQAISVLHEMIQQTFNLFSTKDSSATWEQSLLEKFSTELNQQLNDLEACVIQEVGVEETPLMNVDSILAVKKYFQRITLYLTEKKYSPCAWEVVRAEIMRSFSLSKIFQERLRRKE
Chain of human IFN-α5 (P01569 24-189 limits assumed): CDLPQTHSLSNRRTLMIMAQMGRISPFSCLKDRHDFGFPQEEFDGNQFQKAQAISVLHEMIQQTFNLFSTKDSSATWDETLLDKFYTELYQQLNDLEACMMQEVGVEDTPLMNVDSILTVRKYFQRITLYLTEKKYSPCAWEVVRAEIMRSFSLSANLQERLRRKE

| Binder | IC 50 (ng/ml), ISRE dual luciferase reporter assay (human IFN-α16 [1]) [ng/mL] | IC 50 (ng/ml), ISRE dual luciferase reporter assay (human IFN-α4 [2]) [ng/mL] | IC 50 (ng/ml), ISRE dual luciferase reporter assay (human IFN-α10 [3]) [ng/mL] | IC 50 (ng/ml), ISRE dual luciferase reporter assay (human IFN-α6) [ng/mL] | IC 50 (ng/ml), ISRE dual luciferase reporter assay (human IFN-α1 [4]) [ng/mL] | IC 50 (ng/ml), ISRE dual luciferase reporter assay (human IFN-α14 [5]) [ng/mL] | IC 50 (ng/ml), ISRE dual luciferase reporter assay (human IFN-α5) [ng/mL] | IC 50 (ng/ml), ISRE dual luciferase reporter assay (human IFN-α17) [ng/mL] | IC 50 (ng/ml), ISRE dual luciferase reporter assay (human IFN-α21 [6]) [ng/mL] | IC 50 (ng/ml), ISRE dual luciferase reporter assay (human IFN-α7) [ng/mL] | binding result (g1mIFN-α1) | binding result (g1mIFN-α9) | binding result (human IFN-α16 [7]) | binding result (human IFN-α1 [9]) | IC 50 (ng/ml), ISRE dual luciferase reporter assay (human IFN-ω) [ng/mL] | binding result [13] | binding result [14] | further results |
| --- | --- | --- | --- | --- | --- | --- | --- | --- | --- | --- | --- | --- | --- | --- | --- | --- | --- | --- |
| B1 | 33 | 0.48 | 0.66 | 3.55 | 51.3 | 2.15 | 22.6 | 0.75 | 13 | 0.64 |  |  |  |  |  |  |  |  |
| B2 |  |  |  |  |  |  |  |  |  |  | no binding | no binding | binds | binds |  |  |  | binding result (human IFN-α10 [8]): binds; binding result (human IFN-α21 [10]): binds |
| B3 | 2.35 | 20.2 | 3.63 | 39.3 | 97.4 | 9.2 | 0.91 | 2.31 | 3.05 | 1.9 |  |  |  |  | 113 |  |  |  |
| B4 | 4010 | 2.07 | 1.84 | 3.16 | 8.6 | 2.01 | 3.74 | 2.22 | 4.65 | 1.57 | no binding | no binding |  |  | 0.5 | no binding | no binding | binding result [11]: binds; binding result [12]: binds |
| B5 |  |  |  |  |  |  |  |  |  |  | no binding | no binding | binds | binds |  | no binding | no binding | binding result (human IFN-α4 [15]): binds; binding result (human IFN-α10 [8]): binds; binding result (human IFN-α14 [16]): binds; binding result (human IFN-α21 [10]): binds; binding result (g1 IFN-α10): binds |
| B6 |  |  |  |  |  |  |  |  |  |  | no binding | no binding | binds | binds |  | no binding | no binding | binding result (human IFN-α14 [16]): binds |
| B7 | 1.86 | 5.43 | 2.69 | 77.7 | 29 | 785 | 1.78 | 2.11 | 2.78 | 0.9 |  |  |  |  | 2.13 |  |  |  |
